From patent publication US10961289B2, “Small molecules blocking histone reader domains” (The University of Copenhagen, priority 2015, dated 2021)
Where no end group is shown, it is not given here.

Tests used:
[1] = target: T1, TONSL ARD (amino acid 512-692 of TONSL of SEQ ID NO: 16) (Homo sapiens, UniProt Q96HA7); experiment: Native MS analysis of protein-peptide complexes; type: binding; details: 10 μM TONSL-ARD, 50 mM NH4OAc pH 7.5
T1 construct: GST (N, cleaved yes); made in house; host or cells: E. coli BL21(DE3)-RIL
T1 sequence (Q96HA7 512-692): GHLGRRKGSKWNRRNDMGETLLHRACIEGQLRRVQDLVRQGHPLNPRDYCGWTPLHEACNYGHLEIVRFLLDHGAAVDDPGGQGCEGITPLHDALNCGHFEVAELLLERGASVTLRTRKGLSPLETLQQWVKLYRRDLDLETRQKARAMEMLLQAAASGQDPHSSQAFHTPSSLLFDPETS
Procedure: Various peptides were obtained including the peptides described in Examples 11, 12, 13, 14 and 15. If the peptide was in the form of a trifluoroacetate salt (TFA salt), it was desalted on a polymeric weak cation exchange sorbent (Strata X-CW, Phenomenex, Sartrouville, France): Dry peptide (1-3 μmol) were solubilized in 200 μL pure water (Sigma-Aldrich, Lyon, France). The pH of the solution was adjusted to 7-7.5 by addition of 1 mM aqueous ammonium hydroxide solution (solution freshly prepared from 20% concentrated ammonium hydroxide). The exchange column was conditioned with 1 mL methanol (Sigma-Aldrich, Lyon, France) followed by 1 mL water. The solution was injected and the column was washed twice with 500 μL pure water. Finally the peptide was eluted by gravity with 2 times 500 μL of a 20:80:5 acetonitrile/water/formic acid mixture. The elution fraction containing the expected peptide was identified by mass spectrometry. The TFA-free solution was freeze-dried to get a white solid. The solid was dissolved in 300 μL pure water and the solution was freeze-dried for a second time.
A stock solution of the peptide was prepared by adding 300 μL of pure water to the resulting solid and the concentration of the solution was measured by UV at a wavelength of 205 nm. The extinction coefficient for the corresponding peptide sequence was calculated using the Nick Anthis online protein parameter calculator script (http://nickanthis.com/tools/a205.html). The absence of TFA adducts was confirmed by mass spectrometry with infusion of the protein-peptide mixture at low acceleration voltage (Vc 25 V) in native conditions.
Purified TONSL ARD (i.e. amino acid 512-692 of TONSL of SEQ ID NO: 16) was buffer exchanged against 500 mM NH4OAc pH 7.5 using a NAP 5 column (NAP™-5, GE Healthcare). Bradford protein quantitation was performed on buffer exchanged protein. […]
The mass spectrometry (MS) analysis were carried out on an electrospray time-of-flight mass spectrometer (LCT, Waters, Manchester, UK) equipped with an automated chip-based nanoESI device (Triversa Nanomate, Advion Biosciences, Ithaca, N.Y.). […] Mass spectra were recorded using reduced cone voltage (Vc=50 V) and elevated interface pressure (Pi=5 mbar) which correspond to fine-tuned instrumental settings providing sufficient ion desolvation while preserving the integrity of weak non-covalent complexes in the gas phase. […]
The proportion of 1:1 stoichiometry complex is calculated according to the following equation: […]
To estimate the binding affinities (Kd) of peptides for TONSL-ARD, a mixture of protein/peptide was analyzed at a constant peptide to protein ratio with decreasing protein concentration until the lowest detection limit was reached. […]

[2] = target: T2, TONSL acidic stretch and ARD (450-692) (Homo sapiens, UniProt Q96HA7); experiment: ITC analysis of TONSL acidic stretch and ARD with histone peptides; type: binding; details: ITC (FIG. 35)
T2 construct: ITC analysis of TONSL acidic stretch and ARD (aa. 450-692); made in house; host or cells: E. coli BL21(DE3)-RIL
T2 sequence (Q96HA7 450-692): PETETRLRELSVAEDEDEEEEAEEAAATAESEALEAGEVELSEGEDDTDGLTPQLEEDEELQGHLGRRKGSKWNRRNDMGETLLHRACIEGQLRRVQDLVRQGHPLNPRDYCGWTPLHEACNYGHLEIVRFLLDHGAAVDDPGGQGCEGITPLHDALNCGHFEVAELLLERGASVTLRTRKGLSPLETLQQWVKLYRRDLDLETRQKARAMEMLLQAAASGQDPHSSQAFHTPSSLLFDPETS

[3] = target: T3, TONSL ARD (Homo sapiens, UniProt Q96HA7); experiment: ITC of TONSL ARD binding to histone peptides; details: ITC (FIG. 13); for H4K20me1/2 also peptide pull-downs
T3 construct: GST (N); made in house; host or cells: E. coli BL21(DE3)-RIL
T3 sequence (Q96HA7 512-692): T1 sequence (Q96HA7 512-692)
Procedure: All the ITC titrations were performed on a Microcal ITC 200 calorimeter at 25° C. […] The exothermic heat of the reaction was measured by 17 sequential 2.2 μl injections of the peptides (1.41 mM in buffer 20 mM Tris pH 7.5 and 0.5 M NaCl) into 200 μl of the TONSL ARD solution (145 μM in the same buffer), spaced at intervals of 150 s. The data were processed with Microcal Origin software and the curves were fit to a single […] binding model.

Substance | % P1L1 (proportion of 1:1 stoichiometry protein-peptide complex) [1] [%] | binding to TONSL (450-692) [2] | binding to TONSL ARD [3]
AKRHRKVLR-NH2 [Example 12] | 62.6 |  | 
H3K9me1 (1-21): histone H3K9me1 (aa. 1-21) peptide |  | does not bind | 
H4 tail (9-25): unmodified histone H4 peptide, residues 9-25 (KGLGKGGAKRHRKVLRD; listed as Homo sapiens) |  | recognizes | can bind TONSL ARD
KGGAARHRKVLR-NH2 [Example 15] | 81.4 |  | 
KGGAKRHAKVLR-NH2 [Example 14] | 73.3 |  | 
KGGAKRHRKVLR-NH2 [Example 13] | 89.9 |  | 

The next lines start with the values.

% P1L1 (proportion of 1:1 stoichiometry protein-peptide complex) [1] [%] | binding to TONSL (450-692) [2] | binding to TONSL ARD [3] | Substance
 |  | incompatible with TONSL binding | H4K20me1: histone H4 (residues 9-25) peptide with mono-methylation on Lys20 (GLGKGGAKRHRKVLRDN) [Example H4K20me1]
 |  | incompatible with TONSL binding | H4K20me2: histone H4 (residues 9-25) peptide with di-methylation on Lys20 (GLGKGGAKRHRKVLRDN) [Example H4K20me2]
 |  | totally disrupts binding with TONSL ARD | H18W: histone H4 (residues 9-25) peptide with His18 mutated to Trp18 (GLGKGGAKRWRKVLRDN) [Example H18W]
